Test results taken from patent US20150087577A1 (POLYPHOR, published 2015).
Bridges are numbered along the chain shown (N, C = ends). [ ]: non-standard residue; d: D form. 2Nal = N[C@@H](Cc1ccc2ccccc2c1)C(=O)O; Cit = NC(=O)NCCC[C@H](N)C(=O)O; Dab = NCC[C@H](N)C(=O)O

B1: Example 130 (peptide)
peptide: cyclo(YRQCRG[dP]RR[2Nal]CY[Cit]K[dP]P)
modifications: disulfide 4-11
SMILES: N=C(N)NCCC[C@@H]1NC(=O)[C@@H]2CSSC[C@H](NC(=O)[C@H](Cc3ccc4ccccc4c3)NC(=O)[C@H](CCCNC(=N)N)NC(=O)[C@H](CCCNC(=N)N)NC(=O)[C@H]3CCCN3C(=O)CNC1=O)C(=O)N[C@@H](Cc1ccc(O)cc1)C(=O)N[C@@H](CCCNC(N)=O)C(=O)N[C@@H](CCCCN)C(=O)N1CCC[C@@H]1C(=O)N1CCC[C@H]1C(=O)N[C@@H](Cc1ccc(O)cc1)C(=O)N[C@@H](CCCNC(=N)N)C(=O)N[C@@H](CCC(N)=O)C(=O)N2
B2: Example 131 (peptide)
peptide: cyclo(YRTCRG[dP]RR[2Nal]CY[Cit]K[dP]P)
modifications: disulfide 4-11
SMILES: C[C@@H](O)[C@@H]1NC(=O)[C@H](CCCNC(=N)N)NC(=O)[C@H](Cc2ccc(O)cc2)NC(=O)[C@@H]2CCCN2C(=O)[C@H]2CCCN2C(=O)[C@H](CCCCN)NC(=O)[C@H](CCCNC(N)=O)NC(=O)[C@H](Cc2ccc(O)cc2)NC(=O)[C@@H]2CSSC[C@H](NC1=O)C(=O)N[C@@H](CCCNC(=N)N)C(=O)NCC(=O)N1CCC[C@@H]1C(=O)N[C@@H](CCCNC(=N)N)C(=O)N[C@@H](CCCNC(=N)N)C(=O)N[C@@H](Cc1ccc3ccccc3c1)C(=O)N2
B3: Example 132 (peptide)
peptide: cyclo(YR[Cit]CRG[dP]RR[2Nal]CYTK[dP]P)
modifications: disulfide 4-11
SMILES: C[C@@H](O)[C@@H]1NC(=O)[C@H](Cc2ccc(O)cc2)NC(=O)[C@@H]2CSSC[C@H](NC(=O)[C@H](CCCNC(N)=O)NC(=O)[C@H](CCCNC(=N)N)NC(=O)[C@H](Cc3ccc(O)cc3)NC(=O)[C@@H]3CCCN3C(=O)[C@H]3CCCN3C(=O)[C@H](CCCCN)NC1=O)C(=O)N[C@@H](CCCNC(=N)N)C(=O)NCC(=O)N1CCC[C@@H]1C(=O)N[C@@H](CCCNC(=N)N)C(=O)N[C@@H](CCCNC(=N)N)C(=O)N[C@@H](Cc1ccc3ccccc3c1)C(=O)N2
B4: Example 133 (peptide)
peptide: cyclo(YR[Cit]CRG[dP]RR[2Nal]CYTK[dP]P)
modifications: disulfide 4-11
SMILES: C[C@@H](O)[C@@H]1NC(=O)[C@H](Cc2ccc(O)cc2)NC(=O)[C@@H]2CSSC[C@H](NC(=O)[C@H](CCCNC(N)=O)NC(=O)[C@H](CCCNC(=N)N)NC(=O)[C@H](Cc3ccc(O)cc3)NC(=O)[C@@H]3CCCN3C(=O)[C@H]3CCCN3C(=O)[C@H](CCCCN)NC1=O)C(=O)N[C@@H](CCCNC(=N)N)C(=O)NCC(=O)N1CCC[C@@H]1C(=O)N[C@@H](CCCNC(=N)N)C(=O)N[C@@H](CCCNC(=N)N)C(=O)N[C@@H](Cc1ccc3ccccc3c1)C(=O)N2
B5: Example 134 (peptide)
peptide: cyclo(YR[Cit]CRG[dP][Dab]R[2Nal]CY[Cit]K[dP]P)
modifications: disulfide 4-11
SMILES: N=C(N)NCCC[C@@H]1NC(=O)[C@@H]2CSSC[C@H](NC(=O)[C@H](Cc3ccc4ccccc4c3)NC(=O)[C@H](CCCNC(=N)N)NC(=O)[C@H](CCN)NC(=O)[C@H]3CCCN3C(=O)CNC1=O)C(=O)N[C@@H](Cc1ccc(O)cc1)C(=O)N[C@@H](CCCNC(N)=O)C(=O)N[C@@H](CCCCN)C(=O)N1CCC[C@@H]1C(=O)N1CCC[C@H]1C(=O)N[C@@H](Cc1ccc(O)cc1)C(=O)N[C@@H](CCCNC(=N)N)C(=O)N[C@@H](CCCNC(N)=O)C(=O)N2

The binders below were run against human CXCR4 (human, UniProt P61073 1-352) (assay: cell-based or functional assay).
Chain of human CXCR4 (P61073 whole entry): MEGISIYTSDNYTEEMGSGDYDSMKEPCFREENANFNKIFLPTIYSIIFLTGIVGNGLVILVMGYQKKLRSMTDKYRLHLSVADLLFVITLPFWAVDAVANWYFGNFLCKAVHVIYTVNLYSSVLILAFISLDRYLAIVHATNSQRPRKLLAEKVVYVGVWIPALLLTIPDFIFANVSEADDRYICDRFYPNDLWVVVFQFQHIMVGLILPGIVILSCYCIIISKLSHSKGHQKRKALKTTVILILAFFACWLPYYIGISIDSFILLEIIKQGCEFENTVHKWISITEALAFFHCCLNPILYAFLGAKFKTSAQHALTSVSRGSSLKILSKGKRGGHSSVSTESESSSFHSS

Binder | IC50 (nM) Ca2+ assay (method 2) [nM]
B1 | 4.1
B2 | 2.4
B3 | 1.9
B4 | 5.3
B5 | 1.7
